Test results from IntAct's records for PubMed 22745600.

B1: Homeobox protein extradenticle (Drosophila melanogaster (Fruit fly)), P40427 (parent)
chain: MEDPNRMLAHTGGMMAPQGYGLSGQDDGQNAGSENEVRKQKDIGEILQQIMSISEQSLDEAQARKHTLNCHRMKPALFSVLCEIKEKTVLSIRNTQEEEPPDPQLMRLDNMLIAEGVAGPEKGGGGAAAASAAAASQGGSLSIDGADNAIEHSDYRAKLAQIRQIYHQELEKYEQACNEFTTHVMNLLREQSRTRPITPKEIERMVQIIHKKFSSIQMQLKQSTCEAVMILRSRFLDARRKRRNFSKQASEILNEYFYSHLSNPYPSEEAKEELARKCGITVSQVSNWFGNKRIRYKKNIGKAQEEANLYAAKKAAGASPYSMAGPPSGTTTPMMSPAPPQDSMGYPMGSGGYDQQQPYDNSMGGYDPNLHQDLSP
B2: Pre-B-cell leukemia transcription factor 1 (Mus musculus), P41778 (parent)
chain: MDEQPRLMHSHAGVGMAGHPGLSQHLQDGAGGTEGEGGRKQDIGDILQQIMTITDQSLDEAQARKHALNCHRMKPALFNVLCEIKEKTVLSIRGAQEEEPTDPQLMRLDNMLLAEGVAGPEKGGGSAAAAAAAAASGGAGSDNSVEHSDYRAKLSQIRQIYHTELEKYEQACNEFTTHVMNLLREQSRTRPISPKEIERMVSIIHRKFSSIQMQLKQSTCEAVMILRSRFLDARRKRRNFNKQATEILNEYFYSHLSNPYPSEEAKEELAKKCGITVSQVSNWFGNKRIRYKKNIGKFQEEANIYAAKTAVTATNVSAHGSQANSPSTPNSAGSSSSFNMSNSGDLFMSVQSLNGDSYQGAQVGANVQSQVDTLRHVISQTGGYSDGLAASQMYSPQGISANGGWQDATTPSSVTSPTEGPGSVHSDTSN

Tests used:
lab_drome lab, P10105 = variants of: B1; conditions: with lab_drome lab
abdb_drome Abd-B, P09087 = variants of: B1; conditions: with abdb_drome Abd-B
ubx_drome Ubx, P83949 = variants of: B1; conditions: with ubx_drome Ubx
abda_drome abd-A, P29555 = variants of: B1; conditions: with abda_drome abd-A
hxb8_mouse Hoxb8, P09632 = variants of: B2; conditions: with hxb8_mouse Hoxb8, P09632
Chain of hxb8_mouse Hoxb8, P09632 (P09632 whole entry): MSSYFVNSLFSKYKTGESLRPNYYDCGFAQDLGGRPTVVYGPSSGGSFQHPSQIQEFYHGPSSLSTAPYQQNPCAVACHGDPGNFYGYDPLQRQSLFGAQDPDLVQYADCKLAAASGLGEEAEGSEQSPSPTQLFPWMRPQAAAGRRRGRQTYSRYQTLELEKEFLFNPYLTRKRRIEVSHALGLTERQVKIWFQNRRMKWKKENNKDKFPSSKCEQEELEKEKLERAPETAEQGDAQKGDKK

Chain of abda_drome abd-A, P29555 (P29555 whole entry): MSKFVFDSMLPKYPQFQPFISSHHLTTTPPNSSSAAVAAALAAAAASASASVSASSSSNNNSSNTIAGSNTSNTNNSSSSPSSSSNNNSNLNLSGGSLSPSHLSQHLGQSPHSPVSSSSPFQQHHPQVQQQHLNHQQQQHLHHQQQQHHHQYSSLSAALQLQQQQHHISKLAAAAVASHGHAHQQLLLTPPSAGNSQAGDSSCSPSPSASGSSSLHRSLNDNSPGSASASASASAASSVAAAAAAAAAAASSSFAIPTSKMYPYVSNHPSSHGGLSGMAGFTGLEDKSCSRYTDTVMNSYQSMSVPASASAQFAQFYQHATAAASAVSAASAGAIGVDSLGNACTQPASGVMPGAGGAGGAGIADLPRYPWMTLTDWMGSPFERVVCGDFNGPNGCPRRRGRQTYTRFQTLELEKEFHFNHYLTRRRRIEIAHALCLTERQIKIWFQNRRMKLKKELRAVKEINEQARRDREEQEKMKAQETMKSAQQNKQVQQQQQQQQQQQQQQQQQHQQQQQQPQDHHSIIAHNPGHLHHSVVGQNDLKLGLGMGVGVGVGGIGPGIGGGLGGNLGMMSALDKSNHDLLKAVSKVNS
Chain of lab_drome lab, P10105 (P10105 whole entry): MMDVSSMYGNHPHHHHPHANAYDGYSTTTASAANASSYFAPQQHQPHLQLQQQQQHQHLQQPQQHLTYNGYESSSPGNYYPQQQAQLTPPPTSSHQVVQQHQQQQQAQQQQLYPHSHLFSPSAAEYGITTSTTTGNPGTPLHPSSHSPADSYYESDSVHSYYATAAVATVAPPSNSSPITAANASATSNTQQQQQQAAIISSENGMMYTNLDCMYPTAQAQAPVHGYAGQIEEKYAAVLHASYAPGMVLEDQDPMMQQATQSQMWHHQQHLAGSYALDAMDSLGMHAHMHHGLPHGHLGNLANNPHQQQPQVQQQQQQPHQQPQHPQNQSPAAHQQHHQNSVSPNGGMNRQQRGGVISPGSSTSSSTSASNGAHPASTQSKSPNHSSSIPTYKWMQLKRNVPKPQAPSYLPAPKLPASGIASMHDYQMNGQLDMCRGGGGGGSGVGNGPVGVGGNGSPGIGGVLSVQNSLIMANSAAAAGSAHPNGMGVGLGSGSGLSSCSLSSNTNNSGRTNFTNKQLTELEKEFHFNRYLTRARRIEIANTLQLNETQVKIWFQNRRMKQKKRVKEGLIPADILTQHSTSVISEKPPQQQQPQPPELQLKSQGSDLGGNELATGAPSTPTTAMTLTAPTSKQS
Chain of ubx_drome Ubx, P83949 (P83949 whole entry): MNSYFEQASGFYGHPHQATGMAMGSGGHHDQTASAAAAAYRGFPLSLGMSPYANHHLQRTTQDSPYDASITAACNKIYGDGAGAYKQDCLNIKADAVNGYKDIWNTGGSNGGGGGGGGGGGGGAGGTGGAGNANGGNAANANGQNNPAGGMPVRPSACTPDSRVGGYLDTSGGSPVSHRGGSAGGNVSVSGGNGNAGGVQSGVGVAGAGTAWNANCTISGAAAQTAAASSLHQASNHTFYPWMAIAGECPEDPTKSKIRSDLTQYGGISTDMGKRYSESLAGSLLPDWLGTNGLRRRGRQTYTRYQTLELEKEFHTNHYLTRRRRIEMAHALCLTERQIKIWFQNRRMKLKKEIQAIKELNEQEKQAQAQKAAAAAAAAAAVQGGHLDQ

| Variant | effect of a mutation on the interaction (lab_drome lab, P10105) | effect of a mutation on the interaction (abdb_drome Abd-B, P09087) | effect of a mutation on the interaction (ubx_drome Ubx, P83949) | effect of a mutation on the interaction (abda_drome abd-A, P29555) | effect of a mutation on the interaction (hxb8_mouse Hoxb8, P09632) |
| --- | --- | --- | --- | --- | --- |
| MEDPNRMLAHTGGMMAPQGYGLSGQDDGQNAGSENEVRKQKDIGEILQQIMSISEQSLDEAQARKHTLNCHRMKPALFSVLCEIKEKTVLSIRNTQEEEPPDPQLMRLDNMLIAEGVAGPEKGGGGAAAASAAAASQGGSLSIDGADNAIEHSDYRAKLAQIRQIYHQELEKYEQACNEFTTHVMNLLREQSRTRPITPKEIERMVQIIHKKFSSIQMQLKQSTCEAVMILRSRFLDARRKRRNFSKQASEILNEYFYSHLSNPYPSEEAKEELARKCGITVSQVSAWFGNKRIRYKKNIGKAQEEANLYAAKKAAGASPYSMAGPPSGTTTPMMSPAPPQDSMGYPMGSGGYDQQQPYDNSMGGYDPNLHQDLSP [N287A] | decreasing interaction strength | disrupting interaction strength | decreasing interaction strength | decreasing interaction strength | – |
| MDEQPRLMHSHAGVGMAGHPGLSQHLQDGAGGTEGEGGRKQDIGDILQQIMTITDQSLDEAQARKHALNCHRMKPALFNVLCEIKEKTVLSIRGAQEEEPTDPQLMRLDNMLLAEGVAGPEKGGGSAAAAAAAAASGGAGSDNSVEHSDYRAKLSQIRQIYHTELEKYEQACNEFTTHVMNLLREQSRTRPISPKEIERMVSIIHRKFSSIQMQLKQSTCEAVMILRSRFLDARRKRRNFNKQATEILNEYFYSHLSNPYPSEEAKEELAKKCGITVSQVSAWFGNKRIRYKKNIGKFQEEANIYAAKTAVTATNVSAHGSQANSPSTPNSAGSSSSFNMSNSGDLFMSVQSLNGDSYQGAQVGANVQSQVDTLRHVISQTGGYSDGLAASQMYSPQGISANGGWQDATTPSSVTSPTEGPGSVHSDTSN [N282A] | – | – | – | – | disrupting interaction strength |
